{"source": "paper PMC7612376", "about": "“Structural basis of meiotic chromosome synaptic elongation through hierarchical fibrous assembly of SYCE2-TEX12” (Nature structural & molecular biology, 2021)", "experiment_in_all_cases": "SEC-MALS; co-purified complexes at >1 mg/ml on Superdex 200 Increase 10/300 GL in 20 mM Tris pH 8.0, 150 mM KCl, 2 mM DTT; in Fig. 1 core at 200 uM and full-length at 100 uM (4 mg/ml)", "key": {"[1]": {"target": "SYCE2-TEX12 core ΔCtip 2:2 complex (human) (UniProt Q6PIF2)"}, "[2]": {"target": "SYCE2-TEX12 core FFV (TEX12 F102A F109A V116A), 2:2 building block (human) (UniProt Q6PIF2)"}, "[3]": {"target": "SYCE2-TEX12 full-length ΔCtip 2:2 complex (human) (UniProt Q6PIF2)"}, "[4]": {"target": "T1, SYCE2 core (amino-acids 57-165) (human, UniProt Q6PIF2 57-165)", "T1 construct": "SYCE2, human, core, residues 57-165; also called SYCE2 structural core; source: E. coli BL21 (DE3), co-expressed with TEX12, purified (Ni-NTA, amylose, ion exchange, SEC); not shown: MBP, N-terminal, cleaved", "T1 sequence (looked up)": "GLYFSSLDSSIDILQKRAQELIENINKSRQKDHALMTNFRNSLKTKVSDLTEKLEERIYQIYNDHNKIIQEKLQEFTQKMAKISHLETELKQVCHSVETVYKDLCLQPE", "details": "both partners purified"}, "[5]": {"target": "T2, SYCE2 full-length (1-218) (human, UniProt Q6PIF2 1-218)", "T2 construct": "SYCE2, human, full-length, residues 1-218; source: E. coli BL21 (DE3), co-expressed with TEX12, purified (Ni-NTA, amylose, ion exchange, SEC); not shown: MBP, N-terminal, cleaved", "T2 sequence (looked up)": "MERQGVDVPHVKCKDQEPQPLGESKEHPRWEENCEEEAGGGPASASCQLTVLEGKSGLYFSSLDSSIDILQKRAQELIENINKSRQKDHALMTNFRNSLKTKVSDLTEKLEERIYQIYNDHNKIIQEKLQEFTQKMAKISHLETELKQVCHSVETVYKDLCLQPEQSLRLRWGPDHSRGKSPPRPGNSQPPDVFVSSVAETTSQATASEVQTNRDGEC", "details": "both partners purified"}, "[6]": {"target": "T3, MBP-SYCE2 core (57-165) fusion protein (human, UniProt Q6PIF2 57-165)", "T3 construct": "SYCE2, human, core, residues 57-165; also called SYCE2-TEX12 core MBP-fusion, SYCE2 chain; source: E. coli BL21 (DE3), co-expressed with TEX12, purified; not shown: MBP, N-terminal, kept", "T3 sequence (looked up)": "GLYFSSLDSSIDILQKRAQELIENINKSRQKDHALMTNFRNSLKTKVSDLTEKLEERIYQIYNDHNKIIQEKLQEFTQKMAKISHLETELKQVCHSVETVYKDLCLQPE", "details": "both partners purified"}}}
{"molecule": "SYCE2-TEX12 core ΔCtip 2:2 complex (from UniProt Q6PIF2 57-165; Q9BXU0 49-113)", "values": [{"measurement": "percent of total mass as 2:2 complex (not self-associated)", "setting": "[1]", "value": 98, "unit": "%"}, {"measurement": "percent of total mass as 4:4 complex", "setting": "[1]", "value": 2, "unit": "%"}, {"measurement": "stoichiometry N (2:2 building blocks)", "setting": "[1]", "value": 2}]}
{"molecule": "SYCE2-TEX12 core FFV (TEX12 F102A F109A V116A), 2:2 building block (from UniProt Q6PIF2 57-165; Q9BXU0 49-123) (complex)", "values": [{"measurement": "stoichiometry N (2:2 building blocks)", "setting": "[2]", "value": 2}]}
{"molecule": "SYCE2-TEX12 full-length ΔCtip 2:2 complex (from UniProt Q6PIF2 1-218; Q9BXU0 1-113)", "values": [{"measurement": "percent of total mass as 2:2 complex (not self-associated)", "setting": "[3]", "value": 98, "unit": "%"}, {"measurement": "percent of total mass as 4:4 complex", "setting": "[3]", "value": 2, "unit": "%"}, {"measurement": "stoichiometry N (2:2 building blocks)", "setting": "[3]", "value": 2}]}
{"molecule": "TEX12 core F102A F109A V116A (domain or fragment, human, UniProt Q9BXU0 49-123, looked up, TEX12, human, core, residues 49-123, with F102A, F109A and V116A; also called FFV (core); source: E. coli BL21 (DE3), co-expressed with SYCE2, purified (Ni-NTA, amylose, ion exchange, SEC); not shown: His6, N-terminal, cleaved) KDEALEKDLNDVSKEINLMLSTYAKLLSERAAVDASYIDEIDELFKEANAIENALIQKREALRQRFTAIANTLHR", "values": [{"measurement": "stoichiometry N", "setting": "[4]", "value": "1 TEX12 per SYCE2 (4:4)"}]}
{"molecule": "TEX12 core L110E F114E I117E L121E (domain or fragment, human, UniProt Q9BXU0 49-123, looked up, TEX12, human, core, residues 49-123, with L110E, F114E, I117E and L121E; also called LFIL (core); source: E. coli BL21 (DE3), co-expressed with SYCE2, purified (Ni-NTA, amylose, ion exchange, SEC); not shown: His6, N-terminal, cleaved) KDEALEKDLNDVSKEINLMLSTYAKLLSERAAVDASYIDEIDELFKEANAIENFLIQKREFERQRETVEANTEHR", "values": [{"measurement": "stoichiometry N", "setting": "[4]", "value": "1 TEX12 per SYCE2 (2:2)"}]}
{"molecule": "TEX12 full-length (1-123) (natural protein, human, UniProt Q9BXU0 1-123, looked up, TEX12, human, full-length, residues 1-123; source: E. coli BL21 (DE3), co-expressed with SYCE2, purified (Ni-NTA, amylose, ion exchange, SEC); not shown: His6, N-terminal, cleaved) MMANHLVKPDNRNCKRPRELESPVPDSPQLSSLGKSDSSFSEISGLFYKDEALEKDLNDVSKEINLMLSTYAKLLSERAAVDASYIDEIDELFKEANAIENFLIQKREFLRQRFTVIANTLHR", "values": [{"measurement": "stoichiometry N", "setting": "[5]", "value": "1 TEX12 per SYCE2 (2:2)"}]}
{"molecule": "TEX12 full-length F102A F109A V116A (natural protein, human, UniProt Q9BXU0 1-123, looked up, TEX12, human, full-length, residues 1-123, with F102A, F109A and V116A; also called FFV (full-length); source: E. coli BL21 (DE3), co-expressed with SYCE2, purified (Ni-NTA, amylose, ion exchange, SEC); not shown: His6, N-terminal, cleaved) MMANHLVKPDNRNCKRPRELESPVPDSPQLSSLGKSDSSFSEISGLFYKDEALEKDLNDVSKEINLMLSTYAKLLSERAAVDASYIDEIDELFKEANAIENALIQKREALRQRFTAIANTLHR", "values": [{"measurement": "stoichiometry N", "setting": "[5]", "value": "1 TEX12 per SYCE2 (2:2)"}]}
{"molecule": "TEX12 full-length L110E F114E I117E L121E (natural protein, human, UniProt Q9BXU0 1-123, looked up, TEX12, human, full-length, residues 1-123, with L110E, F114E, I117E and L121E; also called LFIL (full-length); source: E. coli BL21 (DE3), co-expressed with SYCE2, purified (Ni-NTA, amylose, ion exchange, SEC); not shown: His6, N-terminal, cleaved) MMANHLVKPDNRNCKRPRELESPVPDSPQLSSLGKSDSSFSEISGLFYKDEALEKDLNDVSKEINLMLSTYAKLLSERAAVDASYIDEIDELFKEANAIENFLIQKREFERQRETVEANTEHR", "values": [{"measurement": "stoichiometry N", "setting": "[5]", "value": "1 TEX12 per SYCE2 (2:2)"}]}
{"molecule": "TEX12 core ΔCtip (49-113) of the SYCE2-TEX12 core MBP-fusion proteins (domain or fragment, human, UniProt Q9BXU0 49-113, looked up, TEX12, human, core ΔCtip, residues 49-113; also called ΔCtip in the MBP-fusion complex; source: E. coli BL21 (DE3), co-expressed with MBP-SYCE2, purified) KDEALEKDLNDVSKEINLMLSTYAKLLSERAAVDASYIDEIDELFKEANAIENFLIQKREFLRQR", "values": [{"measurement": "stoichiometry N", "setting": "[6]", "value": "1 TEX12 per SYCE2 (2:2)"}]}
